Measurements reported in publication PMC4643876, “Picomolar Inhibition of Plasmepsin V, an Essential Malaria Protease, Achieved Exploiting the Prime Region” (PLoS ONE, 2015).
Like-named read-outs stand apart in the source and are kept apart here. Ends that are not written are not given here. * marks the point of attachment. Biotin = O=C1N[C@H]2[C@H](CS[C@H]2CCCCC(=O)*)N1; Octanoyl = CCCCCCCC(=O)*; GABA = NCCCC(=O)O

What was measured:
[1] = target: GFP-tagged Plasmepsin V (PmV-GFP), P. falciparum clone DC6 (Plasmodium falciparum)
[2] = target: GFP-tagged Plasmepsin V (PmV-GFP), P. falciparum clone DC6 (Plasmodium falciparum); remark: listed apart in the source
[3] = target: GFP-tagged Plasmepsin V (PmV-GFP), P. falciparum clone DC6 (Plasmodium falciparum); remark: listed apart in the source

Chain of GFP-tagged Plasmepsin V (PmV-GFP), P. falciparum clone DC6 (Plasmodium falciparum) (Q8I6Z5 whole entry): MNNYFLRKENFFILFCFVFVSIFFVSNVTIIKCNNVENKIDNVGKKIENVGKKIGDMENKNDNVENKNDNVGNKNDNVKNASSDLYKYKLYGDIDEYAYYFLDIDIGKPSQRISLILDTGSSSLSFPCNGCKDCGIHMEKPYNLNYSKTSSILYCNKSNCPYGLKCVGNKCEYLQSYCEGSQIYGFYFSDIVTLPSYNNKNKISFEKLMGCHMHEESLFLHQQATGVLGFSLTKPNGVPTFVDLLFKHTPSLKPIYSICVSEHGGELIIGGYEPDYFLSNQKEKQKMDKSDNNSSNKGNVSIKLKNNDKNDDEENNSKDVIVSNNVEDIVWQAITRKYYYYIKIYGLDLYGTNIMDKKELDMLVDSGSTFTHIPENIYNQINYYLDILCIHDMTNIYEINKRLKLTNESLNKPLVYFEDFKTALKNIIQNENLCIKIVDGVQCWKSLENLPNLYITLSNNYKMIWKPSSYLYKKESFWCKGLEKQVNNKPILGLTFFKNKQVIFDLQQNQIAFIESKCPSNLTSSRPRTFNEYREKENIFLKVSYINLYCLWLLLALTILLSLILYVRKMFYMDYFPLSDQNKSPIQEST

RLLAQA [Compound 8b (R epimer of Compound 8, glutamine in P2')]
IC50 of inhibition of PmV cleavage of the fluorogenic HRPII-PExEl substrate [1]: 188 nM

RLLYEA [Compound 37b (R epimer of Compound 37)]
IC50 of inhibition of PmV cleavage of the fluorogenic HRPII-PExEl substrate [1]: 1.57 nM

Octanoyl-RLLYEA (not fully specified) [Compound 37a (octanoyl group at the N-terminus of Compound 7a)]
IC50 of inhibition of PmV cleavage of the fluorogenic HRPII-PExEl substrate [2]: 0.023 nM

{Biotin-GABA-GABA}-RLLAEA (also: hydroxyethylamino (HEA) isostere replaces P1 Leu-P1' Ala peptide bond) [Compound 36, a biotinylated version of Compound 1]
in vitro inhibitory activity (IC50) against PmV cleavage of the fluorogenic HRPII-PExEl substrate [3]: 42 nM
